This is an account of results in patent US20110182905A1.

The target in this test is purified hGM-CSF (Biomol #2514, expressed in E. coli) (human) (UniProt P04141). In words: cell-based or functional assay.
Sequence of purified hGM-CSF (Biomol #2514, expressed in E. coli) (human) (P04141 18-144 limits assumed): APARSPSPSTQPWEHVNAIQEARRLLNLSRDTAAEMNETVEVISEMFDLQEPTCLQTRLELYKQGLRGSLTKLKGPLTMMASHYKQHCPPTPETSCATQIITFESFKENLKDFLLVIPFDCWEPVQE

The substance “rat-anti-human-GM-CSF IgG2a BVD2-21C11 (BD #554503) (antibody)” registered a TF-1 assay hGM-CSF (E. coli) [pM], GM-CSF final concentration 1.0 ng/ml of 8260 pM.
